Measured values from publication PMC6832617.

Tests used:
[1] = target: recombinant His-tagged NS1 protein of West Nile virus strain IS-98-ST1 (NS1^WNV) (West Nile virus, strain IS-98-ST1); experiment: SDS-PAGE without heat denaturation + Western blot
[2] = target: recombinant His-tagged NS1 protein of West Nile virus strain IS-98-ST1 (NS1^WNV) (West Nile virus, strain IS-98-ST1); experiment: negative-stain electron microscopy

recombinant His-tagged NS1 protein of West Nile virus strain IS-98-ST1 (NS1^WNV) (natural protein)
stoichiometry N [1]: 2
stoichiometry N [2]: 6
